From patent US7291768

Tests used:
[1] = biological target: GAD-OsMYBS2 (Oryza sativa) (UniProt B8BI93); assay: one_hybrid; conditions: LacZ increase vs no OsMYBS
[2] = biological target: T1, GAD-OsMYBS1 (Oryza sativa) (UniProt B8A9B2); assay: one_hybrid; conditions: LacZ increase vs no OsMYBS
T1 sequence: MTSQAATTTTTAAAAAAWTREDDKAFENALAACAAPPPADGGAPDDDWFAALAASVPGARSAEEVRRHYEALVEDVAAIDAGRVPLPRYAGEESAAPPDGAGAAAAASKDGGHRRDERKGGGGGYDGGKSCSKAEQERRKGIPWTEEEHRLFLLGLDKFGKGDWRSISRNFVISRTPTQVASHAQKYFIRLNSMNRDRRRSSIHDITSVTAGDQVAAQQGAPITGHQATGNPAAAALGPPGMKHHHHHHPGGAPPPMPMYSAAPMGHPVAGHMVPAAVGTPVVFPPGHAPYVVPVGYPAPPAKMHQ

GAD-OsMYBS2 (Oryza sativa), sequence (B8BI93 other isoform, or with tags, fused parts or gaps): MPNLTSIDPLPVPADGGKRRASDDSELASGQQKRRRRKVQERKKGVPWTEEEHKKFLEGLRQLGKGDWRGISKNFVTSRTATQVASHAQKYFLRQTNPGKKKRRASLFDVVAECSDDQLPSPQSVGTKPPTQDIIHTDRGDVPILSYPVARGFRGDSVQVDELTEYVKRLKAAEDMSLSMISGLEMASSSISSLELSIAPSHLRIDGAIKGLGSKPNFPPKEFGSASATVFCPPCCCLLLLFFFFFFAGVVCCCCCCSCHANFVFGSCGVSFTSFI

8x(TATCCA+F), eight repeats of -133 to -82 of alphaAmy3
activity [1]: 5 fold
activity [2]: 3 fold
